{"source": "patent EP0938497B1", "target": "IgG", "assay": "microcalorimetry and surface plasmon resonance"}
{"substance": "locked helix peptide FNM(5)QQRRFY(6)ALH, cyclized (Fig. 11)", "values": [{"measurement": "Kd", "value": 100, "unit": "µM"}]}
